Experimental data as given in the supplement of paper PMC7125110.
± gives the standard error. Fewer inactive variants are shown than the library holds.

B1: glmS ribozyme (parent)
chain: AUAAAAGCGCCAGAACUACAGAAAUGUAGUUGACGAGGAGGAGGUUUAUCGAAUUUUCGGCGGAUGCCUCCAAA

Columns and labels:
Details in all cases: with glucosamine-6-phosphate
glucosamine-6-phosphate [1] = variants of: B1; assay: self-cleavage kobs at 40 uM GlcN6P; higher = faster cleavage; RNA array
Method in brief: (§1)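 Glucosamine-6-phosphate in HEPES/KCl/Mg(OAc)2 buffer, at 40 μM to 10 mM, was flowed over barcoded ribozyme variants transcribed in situ by E. coli RNA polymerase on sequenced MiSeq chips. Tracking was through a hybridised Cy3 probe at 37 °C. kobs, kcat and KM came from exponential decay fits and weighted Michaelis–Menten fits of normalised per-tile medians.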

glucosamine-6-phosphate [2] = variants of: B1; assay: self-cleavage kobs at 2500 uM GlcN6P; higher = faster cleavage; RNA array
Method in brief: as §1

glucosamine-6-phosphate [3] = variants of: B1; assay: self-cleavage kobs at 10000 uM GlcN6P; higher = faster cleavage; RNA array
Method in brief: as §1

glucosamine-6-phosphate [4] = variants of: B1; assay: self-cleavage kobs at 160 uM GlcN6P; higher = faster cleavage; RNA array
Method in brief: as §1

glucosamine-6-phosphate [5] = variants of: B1; assay: self-cleavage kobs at 640 uM GlcN6P; higher = faster cleavage; RNA array
Method in brief: as §1

Variant | self-cleavage kobs at 40 uM GlcN6P (glucosamine-6-phosphate [1]) | self-cleavage kobs at 2500 uM GlcN6P (glucosamine-6-phosphate [2]) | self-cleavage kobs at 10000 uM GlcN6P (glucosamine-6-phosphate [3]) | self-cleavage kobs at 160 uM GlcN6P (glucosamine-6-phosphate [4]) | self-cleavage kobs at 640 uM GlcN6P (glucosamine-6-phosphate [5])
G13C A48U | < 1e-05 s⁻¹ | < 1e-05 s⁻¹ | < 1e-05 s⁻¹ | – | –
A5U A6C A12G G32A G51U | < 1e-05 s⁻¹ | – | < 1e-05 s⁻¹ | – | –
U47G C70G C71G | 8.97e-05 ± 2.5e-05 s⁻¹ | – | – | – | –
G7A G13C G38A | < 1e-05 s⁻¹ | < 1e-05 s⁻¹ | – | – | –
A52U G60U C67U | < 1e-05 s⁻¹ | – | < 1e-05 s⁻¹ | – | –
C11G A15C G29U A64U C70U | < 1e-05 s⁻¹ | – | < 1e-05 s⁻¹ | – | –
G32A U47A | 0.000103 ± 2.6e-05 s⁻¹ | 0.000897 ± 0.00019 s⁻¹ | 0.00237 ± 0.00046 s⁻¹ | 8.74e-05 ± 1.8e-05 s⁻¹ | –
C8A G35C G66A C70G | < 1e-05 s⁻¹ | – | < 1e-05 s⁻¹ | – | –
C34U G40C | < 1e-05 s⁻¹ | – | < 1e-05 s⁻¹ | – | < 1e-05 s⁻¹
C10G G37U G40C G41U C50G | < 1e-05 s⁻¹ | – | – | – | –
A15C G43U U54C | < 1e-05 s⁻¹ | – | < 1e-05 s⁻¹ | – | –
G13U C16G A64U C67G | < 1e-05 s⁻¹ | – | < 1e-05 s⁻¹ | – | –
G37U C68A | < 1e-05 s⁻¹ | – | < 1e-05 s⁻¹ | – | –
C10A A39U | < 1e-05 s⁻¹ | – | < 1e-05 s⁻¹ | < 1e-05 s⁻¹ | < 1e-05 s⁻¹
C8A G40A G63A | < 1e-05 s⁻¹ | – | < 1e-05 s⁻¹ | – | –
G41C G59U | < 1e-05 s⁻¹ | < 1e-05 s⁻¹ | < 1e-05 s⁻¹ | – | < 1e-05 s⁻¹
U54A G62U | < 1e-05 s⁻¹ | < 1e-05 s⁻¹ | < 1e-05 s⁻¹ | – | –
G37U G66A | < 1e-05 s⁻¹ | – | – | – | < 1e-05 s⁻¹
C11U G29C A53U U56G C70A | 0.000205 ± 4.8e-05 s⁻¹ | – | 0.000369 ± 8.6e-05 s⁻¹ | – | –
C10U U46G | < 1e-05 s⁻¹ | – | – | < 1e-05 s⁻¹ | –
C34G G41U U49G A52C A64C | < 1e-05 s⁻¹ | – | – | – | –
G38A U46G A52U | < 1e-05 s⁻¹ | – | – | – | –
A15G A42G A53G | 0.00166 ± 0.00034 s⁻¹ | – | – | – | 0.00796 ± 0.003 s⁻¹
U45C A64G | 0.000103 ± 1.8e-05 s⁻¹ | 0.00182 ± 0.00053 s⁻¹ | 0.00342 ± 0.00055 s⁻¹ | – | –
U46G A53U C70G | 5.33e-05 ± 2.4e-05 s⁻¹ | 0.000254 ± 7.7e-05 s⁻¹ | 0.000165 ± 4e-05 s⁻¹ | – | –
A6C U30G C50G U56C C68A | 7.1e-05 ± 2.5e-05 s⁻¹ | – | 0.000356 ± 0.00016 s⁻¹ | – | –

Variant | self-cleavage kobs at 40 uM GlcN6P (glucosamine-6-phosphate [1]) | self-cleavage kobs at 2500 uM GlcN6P (glucosamine-6-phosphate [2]) | self-cleavage kobs at 10000 uM GlcN6P (glucosamine-6-phosphate [3]) | self-cleavage kobs at 160 uM GlcN6P (glucosamine-6-phosphate [4]) | self-cleavage kobs at 640 uM GlcN6P (glucosamine-6-phosphate [5])
A12U U46C G59A | < 1e-05 s⁻¹ | – | 5.26e-05 ± 1.6e-05 s⁻¹ | – | –
G9C G37A G60C U65A | < 1e-05 s⁻¹ | < 1e-05 s⁻¹ | – | – | –
G7C C11U A42G A64U | < 1e-05 s⁻¹ | – | < 1e-05 s⁻¹ | – | –
A6G A64C | < 1e-05 s⁻¹ | – | < 1e-05 s⁻¹ | < 1e-05 s⁻¹ | < 1e-05 s⁻¹
C61U A64U | < 1e-05 s⁻¹ | < 1e-05 s⁻¹ | < 1e-05 s⁻¹ | < 1e-05 s⁻¹ | < 1e-05 s⁻¹
A12C A53G C68U | 6.52e-05 ± 1.6e-05 s⁻¹ | – | – | – | –
C11A G29U C67G C68G | 3.88e-05 ± 1.7e-05 s⁻¹ | – | – | – | –
U46C A52C | < 1e-05 s⁻¹ | – | – | < 1e-05 s⁻¹ | –
A48C A64U | < 1e-05 s⁻¹ | – | – | < 1e-05 s⁻¹ | < 1e-05 s⁻¹
A6C A36G | < 1e-05 s⁻¹ | < 1e-05 s⁻¹ | < 1e-05 s⁻¹ | < 1e-05 s⁻¹ | < 1e-05 s⁻¹
C11A G29U G59U | 0.000103 ± 2.9e-05 s⁻¹ | – | – | – | –
A12C U56A A64C | < 1e-05 s⁻¹ | – | – | – | 9.73e-05 ± 3.4e-05 s⁻¹
U30G G44U U45C | < 1e-05 s⁻¹ | – | < 1e-05 s⁻¹ | – | –
U49C U54G | < 1e-05 s⁻¹ | – | < 1e-05 s⁻¹ | < 1e-05 s⁻¹ | < 1e-05 s⁻¹
A6U G29U C50U G66C | < 1e-05 s⁻¹ | – | < 1e-05 s⁻¹ | – | –
A33G G62A | < 1e-05 s⁻¹ | – | < 1e-05 s⁻¹ | – | –
G7C G60U | < 1e-05 s⁻¹ | < 1e-05 s⁻¹ | < 1e-05 s⁻¹ | < 1e-05 s⁻¹ | –
G51U A53G A64G U65G | < 1e-05 s⁻¹ | – | < 1e-05 s⁻¹ | – | –
G9C A52U | < 1e-05 s⁻¹ | < 1e-05 s⁻¹ | < 1e-05 s⁻¹ | < 1e-05 s⁻¹ | < 1e-05 s⁻¹
U46C U47C C58G | < 1e-05 s⁻¹ | – | – | – | < 1e-05 s⁻¹
G13U C50G C67A | 0.000194 ± 4.6e-05 s⁻¹ | 0.000138 ± 2.2e-05 s⁻¹ | 0.000101 ± 2.5e-05 s⁻¹ | 0.000278 ± 4.6e-05 s⁻¹ | –
G9U G35C G66U | < 1e-05 s⁻¹ | – | < 1e-05 s⁻¹ | – | –
C10A U31G A42U C50G U56A G60U C68G C71A | 4.77e-05 ± 2e-05 s⁻¹ | – | – | – | 0.00298 ± 0.00084 s⁻¹
C11A C50G | 5.74e-05 ± 1.4e-05 s⁻¹ | 9.24e-05 ± 1.4e-05 s⁻¹ | 8.61e-05 ± 1.6e-05 s⁻¹ | 0.000276 ± 7.2e-05 s⁻¹ | 0.000195 ± 4e-05 s⁻¹
G60A C61A C67G C68G | 4.45e-05 ± 2.2e-05 s⁻¹ | – | – | – | –
U46G C61U | < 1e-05 s⁻¹ | – | – | < 1e-05 s⁻¹ | < 1e-05 s⁻¹
